Measurements as given in patent US11304964B2, “Bolaamphiphilic compounds, compositions and uses thereof” (priority 2012, dated 2022).

What was measured:
[1] = Tenofovir encapsulation in bolaamphiphile vesicles (UV absorbance after Sephadex G50 separation); assay type: physicochemical; settings: vesicles with vs without SA, Sephadex G50, absorbance at 260 nm
Procedure: Bolaamphiphiles, cholesterol, and CHMES (2:1:1 mole ratio) are dissolved in chloroform or a suitable solvent. […] The solvents are evaporated under vacuum and the resultant thin films are hydrated in 0.2 mg/mL CF solution in PBS and probe-sonicated (Vibra-Cell VCX130 sonicator, Sonics and Materials Inc., Newtown, Conn., USA) with amplitude 20%, pulse on: 15 sec, pulse off: 10 sec to achieve homogenous vesicle dispersions. Vesicle size and zeta potential were determined using a Zetasizer Nano ZS (Malvern Instruments, UK).
Methods were established to determine quantitatively the amount of the encapsulated tenofovir based on a UV absorption and determined the percent of tenofovir encapsulation by various vesicle formulations (data not shown). […] One objective of this work was to achieve the maximum amount of tenofovir encapsulated per vesicle along with a minimum loss of the non-encapsulated drug. Accordingly, several parameters were examined, such as varying the ratio among the vesicle components, changing the ratio of tenofovir to bolaamphiphiles, varying the pH of the hydration solution and also adding to the formulation additional additives, in the attempt to increase the encapsulation capacity of the vesicles.
In particular, in order to maximize tenofovir encapsulation the following parameters were studied: (1) tenofovir to GLH ratio; (2) adjusting the concentrations of cholestyrl hemisuccinate (CHEM) and cholesterol (CHOL), components that are used in the vesicle formulation, (3) examining several buffers and pHs in the encapsulation process, (4) time of sonication, and (5) tenofovir concentration, and (6) addition of stearyl amine to the vesicle formulation to enhance encapsulation by complexation with tenofovir.
The vesicles were prepared from formulations with and without SA and the non-encapsulated tenofovir (free tenofovir) was separated from the encapsulated tenofovir on Sephadex G50 column and the absorbance at 260 nm of each fraction collected from the column was read.

[2] = Fluorescence in cerebral cortex after i.v. injection of albumin-FITC; assay type: in vivo; settings: mouse cerebral cortex fluorescence
Source text: FIG. 5A: Fluorescence in mouse cerebral cortex after i.v. injection of albumin-FITC (non-encapsulated) FIG. 5B: Fluorescence in mouse cerebral cortex after i.v. injection of albumin-FITC encapsulated in GLH-20 vesicles.

| Compound | effect of stearyl amine on tenofovir encapsulation [1] | delivery to the brain ([2]; encapsulated in GLH-20 vesicles) | brain accumulation ([2]; un-encapsulated) |
| --- | --- | --- | --- |
| CCCCCCCCCCCCCCCCCCN [SA, stearyl amine] | increase tenofovir encapsulation |  |  |
| Albumin-FITC: FITC-labelled protein albumin |  | delivered successfully to the brain | little, if any, brain accumulation |
